Results taken from article doi:10.1101/2025.09.11.675134, “Biodistribution-Driven Discovery Identifies a Glycosidase-Cleavable Linker to Reprogram Radiotheranostics” (bioRxiv, 2025).
Entries after “also recorded” stand apart in the source; their conditions may differ. Where two headings read alike, the source gives them in different places.

How the values were obtained:
β-galactosidase = β-galactosidase 10 KU/mL in PBS (10 mM, pH 7.2), 37 °C; for Cleaved product 86Y-DOTA-NHMe, % of the total activity: mixed 1:1 (v/v), radio-TLC
Method: To further confirm β-galactosidase-specific cleavage, ^86Y-DOTA-β-Gal-TATE was incubated in vitro with β-galactosidase and analyzed by radio-TLC over time.
To analyze radioactive urine metabolites, ^86Y-DOTA-MVK(ε)-TATE or ^86Y-DOTA-β-Gal-TATE (13 – 15 MBq in 200 μL PBS, 4 μg) was intravenously injected into normal, non-tumor-bearing athymic nu/nu mice (n = 3). As reference controls, standard metabolites of ^86Y-DOTA-MVK(ε)-TATE (^86Y-DOTA-G-M-OH) and ^86Y-DOTA-β-Gal-TATE (^86Y-DOTA-NHMe) were also prepared and administered to normal athymic, non-tumor-bearing nu/nu mice. Urine samples were collected 1 hour post-injection, centrifuged at 10,000 rpm, and subsequently analyzed by radio-HPLC for each ^86Y-labeled DOTA-TATE variant. The radio-HPLC peaks were compared with those of the standard metabolites (^86Y-DOTA-G-M-OH or ^86Y-DOTA-NHMe). Radio-HPLC analysis was conducted under the same conditions as those used for analyzing the radiolabeled the DOTA-TATE variants, using an Agilent 1260 Infinity II system with a TSK-gel Octadecyl-4PW column and a gradient elution method. For in vitro enzyme-mediated cleavage, β-galactosidase was prepared in PBS (10 mM, pH 7.2) at 10 KU/mL. ^86Y-DOTA-β-Gal-TATE (13–15 MBq in 200 μL PBS) was mixed 1:1 (v/v) with β-galactosidase solution and incubated at 37 °C. Aliquots were taken at 1, 4, and 24 h, centrifuged at 10,000 rpm, and the supernatants were analyzed by radio-TLC. The 24 h sample was further examined by radio-HPLC to confirm metabolite identity.

[1] = Blood chemistry and complete blood count during therapy; type: in vivo, athymic nu/nu mice; conditions: one cycle of 225Ac treatment (148 kBq), blood at 0, 10 and 31 days, VetScan HM5
From the text: Blood samples were collected at multiple timepoints during therapy studies and analyzed to assess toxicity (Fig. S25). Biochemical parameters of liver (e.g. alanine aminotransferase, bilirubin) and renal (blood urea nitrogen, and creatinine) toxicity remained mostly within normal limits across all groups. […] These findings further support the favorable tolerability profiles of the cleavable linker constructs.
Additionally, a basic metabolic panel (BMP) and complete blood count (CBC) analysis were performed to monitor hematological parameters and potential treatment-related toxicity. For the one-cycle therapy cohort, blood was collected at 0-, 10-, and 31-days post-treatment, whereas for the two-cycle therapy cohort, blood was collected at 10 days, 3 months, and 6 months post-treatment. Samples were obtained retro-orbitally into potassium EDTA-coated tubes and analyzed using the Vetscan VS2 (Abaxis, Union City, CA, USA) and VetScan HM5 hematology analyzer (Abaxis). Although these instruments provide species-specific reference intervals, manufacturer-supplied ranges may not fully reflect our study cohort. […] The following parameters were assessed and compared: alanine transaminase (ALT, U/L), total bilirubin (TBIL, μmol/L), creatinine (CRE, μmol/L), blood urea nitrogen (BUN, mmol/L), total white blood cell count (WBC, 10^9/L), hemoglobin (HGB, g/dL), and platelets (PLT, 10^9/L).

AR42J xenografts = assay: Targeted alpha particle therapy, two-cycle regimen; type: in vivo, athymic nu/nu mice; conditions: 2 × 148 kBq
Method: To further assess therapeutic efficacy, AR42J xenograft-bearing mice received two cycles of ^225Ac-labeled constructs (2 × 148 kBq, administered 8 days apart) (Fig. 5D). […] Complete tumor regression occurred in two of six animals in each cleavable linker group.
Mice received either a one-cycle regimen (n=8 per cohort) or a two-cycle regimen (n=6 per cohort) at an 8-day interval. Tumor volume and body weight were measured twice weekly after treatment using a digital caliper. Tumor volume was calculated using the formula V (mm^3) = (l × w^2)/2, where l (length) was the larger of the two perpendicular tumor axes, and w (width) was the smaller axis. Survival was monitored, with the endpoint defined as a tumor volume exceeding 2000 mm^3, a weight loss greater than 20% from baseline, or signs of distress in the mice.

## C[C@@H](O)[C@H](NC(=O)[C@@H]1CSSC[C@H](NC(=O)[C@@H](Cc2ccccc2)NC(=O)CCCC(=O)Nc2cc(COC(=O)N(C)CCNC(=O)CN3CCN(CC(=O)O)CCN(CC(=O)O)CCN(CC(=O)O)CC3)ccc2O[C@@H]2O[C@H](CO)[C@H](O)[C@H](O)[C@H]2O)C(=O)N[C@@H](Cc2ccc(O)cc2)C(=O)N[C@H](Cc2c[nH]c3ccccc23)C(=O)N[C@@H](CCCCN)C(=O)N[C@@H]([C@@H](C)O)C(=O)N1)C(=O)O [^86Y-DOTA-β-Gal-TATE, metal not drawn]
β-galactosidase; 24 h sample, radio-HPLC (peak at 2.6 min)
  Compound converted to 86Y-DOTA-NHMe: 90.7%
β-galactosidase; 1 h
  Cleaved product 86Y-DOTA-NHMe, % of the total activity: 24.6%
β-galactosidase; 4 h
  Cleaved product 86Y-DOTA-NHMe, % of the total activity: 50.2%
β-galactosidase; 24 h
  Cleaved product 86Y-DOTA-NHMe, % of the total activity: 88.8%

## C[C@@H](O)[C@H](NC(=O)[C@@H]1CSSC[C@H](NC(=O)[C@@H](Cc2ccccc2)NC(=O)CCCC(=O)Nc2cc(COC(=O)N(C)CCNC(=O)CN3CCN(CC(=O)O)CCN(CC(=O)O)CCN(CC(=O)O)CC3)ccc2O[C@@H]2O[C@H](CO)[C@H](O)[C@H](O)[C@H]2O)C(=O)N[C@@H](Cc2ccc(O)cc2)C(=O)N[C@H](Cc2c[nH]c3ccccc23)C(=O)N[C@@H](CCCCN)C(=O)N[C@@H]([C@@H](C)O)C(=O)N1)C(=O)O [^225Ac-DOTA-β-Gal-TATE, metal not drawn]
[1]
  White blood cell counts: transient decrease following one cycle of ^225Ac treatment that recovered at later time points
AR42J xenografts; 8-day interval, n = 6
  Tumor control: significantly smaller; also recorded: prolonged tumor control with sustained growth inhibition
AR42J xenografts; 8 days apart, AR42J xenograft-bearing mice, n = 6, Kaplan–Meier, vehicle 26.5 days
  Median survival time: 191.5 days
AR42J xenografts; n = 6
  Mice with tumor volumes below 100 mm^3 by the final monitoring point: all six
